Source: patent US20230002480A1

Tests used:
Assay in all cases: cell-based or functional assay
[1] = biological target: HIV-1 Env of pseudovirus 620345.c01 (clade CRF01_AE) (HIV-1)
[2] = biological target: HIV-1 Env of pseudovirus C4118.c09 (clade CRF01_AE) (HIV-1)
[3] = biological target: HIV-1 Env of pseudovirus T251-18 (clade CRF02_AG) (HIV-1)
[4] = biological target: HIV-1 Env of pseudovirus T278-50 (clade CRF02_AG) (HIV-1)
[5] = biological target: HIV-1 Env of pseudovirus X2088_c9 (clade G) (HIV-1)
[6] = biological target: HIV-1 Env pseudovirus 3301.v1.c24 (HIV-1)
[7] = biological target: HIV-1 Env pseudovirus 6041.v3.c23 (HIV-1)
[8] = biological target: HIV-1 Env pseudovirus 89-F1_2_25 (HIV-1)
[9] = biological target: HIV-1 Env pseudovirus BJOX010000.06.2 (HIV-1)
[10] = biological target: HIV-1 Env pseudovirus R2184.c04 (HIV-1)
[11] = biological target: HIV-1 Env pseudovirus R3265.c06 (HIV-1)
[12] = biological target: HIV-1 Env pseudovirus T250-4 (HIV-1)
[13] = biological target: HIV-1 Env pseudovirus T251-18 (HIV-1)
[14] = biological target: HIV-1 Env pseudovirus X1193_c1 (HIV-1)
[15] = biological target: HIV-1 Env of pseudovirus 1056_10_TA11_1826 (clade B (T/F)) (HIV-1)
[16] = biological target: HIV-1 Env of pseudovirus 1394C9G1(Rev-) (clade C (T/F)) (HIV-1)
[17] = biological target: HIV-1 Env of pseudovirus 6240_08_TA5_4622 (clade B (T/F)) (HIV-1)
[18] = biological target: HIV-1 Env of pseudovirus 7030102001E5(Rev-) (clade C (T/F)) (HIV-1)
[19] = biological target: HIV-1 Env of pseudovirus AC10.0.29 (clade B) (HIV-1)
[20] = biological target: HIV-1 Env of pseudovirus CNE21 (clade BC) (HIV-1)
[21] = biological target: HIV-1 Env of pseudovirus CNE58 (clade BC) (HIV-1)
[22] = biological target: HIV-1 Env of pseudovirus Ce2010_F5 (clade C (T/F)) (HIV-1)
[23] = biological target: HIV-1 Env of pseudovirus Ce2060_G9 (clade C (T/F)) (HIV-1)
[24] = biological target: HIV-1 Env of pseudovirus Ce704809221_1B3 (clade C (T/F)) (HIV-1)
[25] = biological target: HIV-1 Env of pseudovirus Q461.e2 (clade A) (HIV-1)
[26] = biological target: HIV-1 Env of pseudovirus SC05_8C11_2344 (clade B (T/F)) (HIV-1)
[27] = biological target: HIV-1 Env of pseudovirus TRO.11 (clade B) (HIV-1)
[28] = biological target: HIV-1 Env of pseudovirus ZM109F.PB4 (clade C) (HIV-1)
[29] = biological target: HIV-1 Env of pseudovirus ZM197M.PB7 (clade C) (HIV-1)
[30] = biological target: HIV-1 Env of pseudovirus ZM233M.PB6 (clade C) (HIV-1)
[31] = biological target: HIV-1 Env of pseudovirus ZM247v1(Rev-) (clade C (T/F)) (HIV-1)
[32] = biological target: MuLV envelope (negative control pseudovirus) (MuLV)

PG9 (antibody)
IC50, titer in TZM.bl cells [1]: 1.33 µg/mL | IC80, titer in TZM.bl cells [1]: > 50 µg/mL | IC50, titer in TZM.bl cells [2]: 0.068 µg/mL | IC80, titer in TZM.bl cells [2]: 0.2 µg/mL | IC50, titer in TZM.bl cells [3]: > 50 µg/mL | IC80, titer in TZM.bl cells [3]: > 50 µg/mL | IC50, titer in TZM.bl cells [4]: 0.393 µg/mL | IC80, titer in TZM.bl cells [4]: 3.19 µg/mL | IC50, titer in TZM.bl cells [5]: > 50 µg/mL | IC80, titer in TZM.bl cells [5]: > 50 µg/mL

10-1074 (antibody)
IC50, titer in TZM.bl cells [1]: > 50 µg/mL | IC80, titer in TZM.bl cells [1]: > 50 µg/mL | IC50, titer in TZM.bl cells [2]: > 50 µg/mL | IC80, titer in TZM.bl cells [2]: > 50 µg/mL | IC50, titer in TZM.bl cells [3]: 1.08 µg/mL | IC80, titer in TZM.bl cells [3]: 7.39 µg/mL | IC50, titer in TZM.bl cells [4]: 2.15 µg/mL | IC80, titer in TZM.bl cells [4]: 18.3 µg/mL | IC50, titer in TZM.bl cells [5]: 0.003 µg/mL | IC80, titer in TZM.bl cells [5]: 0.014 µg/mL

N49P9 (antibody)
IC50 [6]: 0.072 µg/mL | MPI [6]: 100 | IC50 [7]: 0.089 µg/mL | IC80 [7]: 0.777 µg/mL | MPI [7]: 95 | IC50 [8]: > 50 µg/mL | IC80 [8]: > 50 µg/mL | MPI [8]: 23 | IC50 [9]: 0.482 µg/mL | IC80 [9]: 2.34 µg/mL | MPI [9]: 100 | IC50 [10]: 0.015 µg/mL | IC80 [10]: 0.034 µg/mL | MPI [10]: 100 | IC50 [11]: 0.135 µg/mL | IC80 [11]: 0.812 µg/mL | MPI [11]: 100 | IC50 [12]: > 50 µg/mL | IC80 [12]: > 50 µg/mL | MPI [12]: 25 | IC50 [13]: 0.147 µg/mL | IC80 [13]: 0.517 µg/mL | MPI [13]: 100 | IC50 [14]: 0.025 µg/mL | IC80 [14]: 0.081 µg/mL | MPI [14]: 100

PG16 (antibody)
IC50, titer in TZM.bl cells [1]: > 50 µg/mL | IC80, titer in TZM.bl cells [1]: > 50 µg/mL | IC50, titer in TZM.bl cells [2]: 0.022 µg/mL | IC80, titer in TZM.bl cells [2]: 0.143 µg/mL | IC50, titer in TZM.bl cells [3]: 1.72 µg/mL | IC80, titer in TZM.bl cells [3]: 44.7 µg/mL | IC50, titer in TZM.bl cells [4]: 0.227 µg/mL | IC80, titer in TZM.bl cells [4]: 18.6 µg/mL | IC50, titer in TZM.bl cells [5]: > 50 µg/mL | IC80, titer in TZM.bl cells [5]: > 50 µg/mL

10E8 (antibody)
IC50, titer in TZM.bl cells [1]: 0.455 µg/mL | IC80, titer in TZM.bl cells [1]: 6 µg/mL | IC50, titer in TZM.bl cells [2]: 1.62 µg/mL | IC80, titer in TZM.bl cells [2]: 9.06 µg/mL | IC50, titer in TZM.bl cells [3]: 2.36 µg/mL | IC80, titer in TZM.bl cells [3]: > 10 µg/mL | IC50, titer in TZM.bl cells [4]: 0.949 µg/mL | IC80, titer in TZM.bl cells [4]: 7.46 µg/mL | IC50, titer in TZM.bl cells [5]: > 10 µg/mL | IC80, titer in TZM.bl cells [5]: > 10 µg/mL

N49P7.2 (antibody)
IC50 [15]: 0.114 µg/mL | IC80 [15]: 0.771 µg/mL | MPI [15]: 100 | IC50 [16]: > 50 µg/mL | IC80 [16]: > 50 µg/mL | MPI [16]: 20 | IC50 [17]: 0.812 µg/mL | IC80 [17]: 2.87 µg/mL | MPI [17]: 100 | IC50 [18]: 0.313 µg/mL | IC80 [18]: 1.03 µg/mL | MPI [18]: 100 | IC50 [19]: 44.2 µg/mL | IC80 [19]: > 50 µg/mL | MPI [19]: 53 | IC50 [20]: 48.3 µg/mL | IC80 [20]: > 50 µg/mL | MPI [20]: 51 | IC50 [21]: 0.045 µg/mL | IC80 [21]: 0.129 µg/mL | MPI [21]: 100 | IC50 [22]: 0.398 µg/mL | IC80 [22]: 1.29 µg/mL | MPI [22]: 100 | IC50 [23]: 0.821 µg/mL | IC80 [23]: 2.81 µg/mL | MPI [23]: 100 | IC50 [24]: 0.874 µg/mL | IC80 [24]: 3.88 µg/mL | MPI [24]: 100 | IC50 [25]: 0.472 µg/mL | IC80 [25]: 2.24 µg/mL | MPI [25]: 100 | IC50 [26]: 0.326 µg/mL | IC80 [26]: 1.14 µg/mL | MPI [26]: 100 | IC50 [27]: 0.113 µg/mL | IC80 [27]: 0.306 µg/mL | MPI [27]: 100 | IC50 [28]: 0.065 µg/mL | IC80 [28]: 0.321 µg/mL | MPI [28]: 99 | IC50 [29]: 0.223 µg/mL | IC80 [29]: 1.37 µg/mL | MPI [29]: 100 | IC50 [30]: 0.475 µg/mL | IC80 [30]: 2.14 µg/mL | MPI [30]: 99 | IC50 [31]: 0.177 µg/mL | IC80 [31]: 2.5 µg/mL | MPI [31]: 96 | IC50 [32]: > 50 µg/mL | IC80 [32]: > 50 µg/mL | MPI [32]: 4

N49P19 (antibody)
IC50 [6]: 0.302 µg/mL | IC80 [6]: 1.42 µg/mL | MPI [6]: 98 | IC50 [7]: > 50 µg/mL | IC80 [7]: > 50 µg/mL | MPI [7]: 32 | IC50 [8]: > 50 µg/mL | IC80 [8]: > 50 µg/mL | MPI [8]: 7 | IC50 [9]: 4.16 µg/mL | IC80 [9]: 19.1 µg/mL | MPI [9]: 96 | IC50 [10]: 0.132 µg/mL | IC80 [10]: 0.445 µg/mL | MPI [10]: 100 | IC50 [11]: 0.634 µg/mL | IC80 [11]: 2.73 µg/mL | MPI [11]: 100 | IC50 [12]: > 50 µg/mL | IC80 [12]: > 50 µg/mL | MPI [12]: 7 | IC50 [13]: 0.938 µg/mL | IC80 [13]: 4.2 µg/mL | MPI [13]: 100 | IC50 [14]: 0.54 µg/mL | IC80 [14]: 3.15 µg/mL | MPI [14]: 99

N49P9.1 (antibody)
IC50 [6]: 0.059 µg/mL | IC80 [6]: 0.178 µg/mL | MPI [6]: 100 | IC50 [7]: 0.282 µg/mL | IC80 [7]: 6.78 µg/mL | MPI [7]: 90 | IC50 [8]: > 50 µg/mL | IC80 [8]: > 50 µg/mL | MPI [8]: 23 | IC50 [9]: 0.883 µg/mL | IC80 [9]: 4.26 µg/mL | MPI [9]: 100 | IC50 [10]: 0.019 µg/mL | IC80 [10]: 0.057 µg/mL | MPI [10]: 100 | IC50 [11]: 0.469 µg/mL | IC80 [11]: 1.62 µg/mL | MPI [11]: 100 | IC50 [12]: > 50 µg/mL | IC80 [12]: > 50 µg/mL | MPI [12]: 7 | IC50 [13]: 0.127 µg/mL | IC80 [13]: 0.352 µg/mL | MPI [13]: 100 | IC50 [14]: 0.042 µg/mL | IC80 [14]: 0.15 µg/mL | MPI [14]: 100
